Columns and labels:
[1] = Solution stability of the 90Y-labeled conjugate in ascorbic acid buffer, RCP by HPLC (Method 1); assay type: physicochemical; conditions: for RCP (radiochemical purity): 0.1 M ascorbic acid buffer pH 5.0
Description: (§1) The integrity of a radiopharmaceutical is measured by the radiochemical purity (RCP) of the radiolabeled compound using ITLC or more preferably HPLC. The advantage of using HPLC is that radio-impurities caused by radiolytic degradation can be separated from the radiopharmaceutical under optimized chromatographic conditions. […] The radiopharmaceutical compositions of this invention are effective in maintaining the long-term stability of samples that have been frozen, thawed, and re-tested up to 5 days post-labeling.
(§2) The initial RCP of a radiopharmaceutical is largely dependent on radiolabeling conditions such as pH, heating temperature and time. Once a radiopharmaceutical is prepared in high yield, the ability of an antioxidant to stabilize a radiopharmaceutical composition is measured by the RCP change over a certain period of time.
as §1, with “periodically for” for “up to”, “days.” for “days post-labeling.”
as §2, with “stability” for “ability”, “the” for “an antioxidant to stabilize a”, “change of the radiopharmaceutical” for “change”
Analytical Methods. HPLC method 1 used a HP-1100 HPLC system with a UV/visible detector (Δ=220 nm), an IN-US radio-detector, and a Zorbax C18 column (4.6 mm×250 mm, 80 A pore size). The flow rate was 1 mL/min with the mobile phase starting with 92% solvent A (0.025 M ammonium acetate buffer, pH 6.8) and 8% solvent B (acetonitrile) to 90% solvent A and […] at 18 min, followed by an isocratic wash using 40% of solvent A and 60% solvent B from 19 to 25 min.
(2S)-2-[({2,6-Dimethyl-4-[3-(N-{2-[3-sulfo-2-(3-sulfo-2-{2-[1,4,7,10-tetraaza-4,7,10-tris(carboxymethyl) cyclododecyl]acetylamino}propyl)propyl]ethyl}carbamoyl)-propoxy]phenyl}sulfonyl)amino]-3-({7-[(imidazol-2-ylamino)methyl]-1-methyl-4-oxo(3-hydroquinolyl)}-carbonylamino)propanoic acid trifluoroacetate was prepared as disclosed in U.S. patent application Ser. No. 09/456,300 and was subsequently dissolved in 0.1 M AA buffer (pH 5.0) to give a concentration of 100 μg/mL. The resulting solution was immediately degassed under vacuum for another 1-2 min. To a clean sealed 5 mL vial was added 5.0 mL of 0.1 M ascorbic acid buffer (pH 5.0) containing 500 μg of (2S)-2-[({2,6-Dimethyl-4-[3-(N-{2-[3-sulfo-2-(3-sulfo-2-{2-[1,4,7,10-tetraaza-4,7,10-tris(carboxymethyl) cyclododecyl]acetylamino}propyl) propyl]ethyl}carbamoyl)propoxy]phenyl}sulfonyl)amino]-3-({7-[(imidazol-2-ylamino)methyl]-1-methyl-4-oxo(3-hydroquinolyl)}carbonylamino)propanoic acid trifluoroacetate. The solution was degassed again under vacuum. Upon addition of ˜75 μL of ^90YCl3 solution (101.5 mCi) in 0.05 N HCl, the reaction mixture was heated at 95° C. for 30 min. After cooling to room temperature, a sample of the resulting solution was diluted 50-fold with saline containing sodium gentisate (10 mg/mL), and was then analyzed by HPLC (Method 1, injection volume 5 μL). The resulting mixture was then kept in a dry-ice box (−78° C.) for 5 days. Samples were analyzed at t=0 (RCP=98.5%), 24 h (RCP=98.4%), 68 h (RCP=98.0%), and 120 h (RCP=98.8%). The retention time was 14.8 min.

[2] = Solution stability of the 111In-labeled conjugate in ascorbic acid buffer, RCP by HPLC (Method 3); assay type: physicochemical; conditions: for RCP (radiochemical purity): 0.1 M ascorbic acid buffer pH 6.0
Description: The integrity of a radiopharmaceutical is measured by the radiochemical purity (RCP) of the radiolabeled compound using ITLC or more preferably HPLC. The advantage of using HPLC is that radio-impurities caused by radiolytic degradation can be separated from the radiopharmaceutical under optimized chromatographic conditions. […] The radiopharmaceutical compositions of this invention are effective in maintaining the long-term stability of samples that have been frozen, thawed, and re-tested up to 5 days post-labeling. The initial RCP of a radiopharmaceutical is largely dependent on radiolabeling conditions such as pH, heating temperature and time. Once a radiopharmaceutical is prepared in high yield, the ability of an antioxidant to stabilize a radiopharmaceutical composition is measured by the RCP change over a certain period of time. The integrity of a radiopharmaceutical is measured by the radiochemical purity (RCP) of the radiolabeled compound using ITLC or more preferably HPLC. The advantage of using HPLC is that radio-impurities caused by radiolytic degradation can be separated from the radiopharmaceutical under optimized chromatographic conditions. […] The radiopharmaceutical compositions of this invention are effective in maintaining the long-term stability of samples that have been frozen, thawed, and re-tested periodically for 5 days. The initial RCP of a radiopharmaceutical is largely dependent on radiolabeling conditions such as pH, heating temperature and time. Once a radiopharmaceutical is prepared in high yield, the stability of the radiopharmaceutical composition is measured by the RCP change of the radiopharmaceutical over a certain period of time. HPLC method 3 used a HP-1100 HPLC system with a UV/visible detector (k=220 nm), an IN-US radio-detector, and a Zorbax C18 column (4.6 mm×250 mm, 80 A pore size). […] After cooling to room temperature, a sample of the resulting solution was then analyzed by HPLC (Method 3, injection volume=10 μL). […] Samples were analyzed at t 0 (RCP 98.2%) and 24 h (RCP=97.6%). […]

[3] = 5 mL AA solution containing 100 mg AA, pH=5.0

Row | Substance | RCP while stable over at least 5 days [1, 3] [%] | remains stable (time) [1, 3] | RCP (radiochemical purity) ([1]; 24 h, kept in dry-ice box (-78° C.)) [%] | RCP (radiochemical purity) ([1]; 68 h, kept in dry-ice box (-78° C.)) [%] | RCP (radiochemical purity) ([1]; 120 h, kept in dry-ice box (-78° C.)) [%] | RCP (radiochemical purity) ([1]; t=0, 100 mCi 90Y) [%] | remains stable in solution (time) ([2]; 0.1 M ascorbic acid buffer pH 6.0, room temperature) | RCP (radiochemical purity) ([2]; 24 h, kept at room temperature) [%] | RCP (radiochemical purity) ([2]; t 0, 2.8 mCi 111In) [%]
1 | ^90Y-(2S)-2-[({2,6-Dimethyl-4-[3-(N-{2-[3-sulfo-2-(3-sulfo-^2-{^2-[1,4,7,10-tetraaza-4,7,10-tris(carboxymethyl) cyclododecyl]acetylamino}--propyl)propyl]ethyl}carbamoyl)-propoxy]phenyl}sulfonyl)amino]-^3-({^7-[(imidazol-2-ylamino)methyl]-1-methyl-4-oxo(3-hydroquinolyl)}-carbonylamino)propanoic acid trifluoroacetate [Example 2] | > 96 | at least 5 days | 98.4 | 98.0 | 98.8 | 98.5 |  |  | 
2 | ^111In-(2S)-2-[({2,6-Dimethyl-4-[3-(N-{2-[3-sulfo-2-(3-sulfo-2-{2-[1,4,7,10-tetraaza-4,7,10-tris(carboxymethyl) cyclododecyl]acetylamino}--propyl)propyl]ethyl}carbamoyl)-propoxy]phenyl}sulfonyl)amino]-3-({7-[(imidazol-2-ylamino)methyl]-1-methyl-4-oxo(3-hydroquinolyl)}-carbonylamino)propanoic acid trifluoroacetate [Example 3] |  |  |  |  |  |  | at least 24 hours | 97.6 | 98.2

Source: patent US6713042B2, “Ascorbic acid analogs for metalloradiopharmaceuticals” (Bristol-Myers Squibb Pharma Company, priority 2001, dated 2004)
